From the supplement of paper PMC10724198 come the findings set out here.

The series concerns Saccharomyces cerevisiae. Description: protein stability index of tFT-peptide fusion (C-terminal peptide) (PSI (0-1 scale)); higher = more stable (slower turnover). To be noted: temperature: 30 C. How it is done:
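MPS profiling in S. cerevisiae of the yeast C-terminome library: the last 12 aa of each annotated ORF are fused to the C-terminus of a sfGFP-mCherry timer, after a GGGS linker. Cells are FACS-sorted into 8 mCherry/sfGFP bins and deep-sequenced. PSI runs from 0 (unstable) to 1 (stable); wild type and das1Δ backgrounds, two technical replicates each.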

Setting [1] is: genetic background: das1 deletion.

± gives the standard deviation of the averaged measurements.

For APTPEACESCSG [RNR3 C-terminal 12 aa], the protein stability index under setting [1] worked out at 0.696 ± 0.01 and the protein stability index (genetic background: wild type) worked out at 0.6947 ± 0.003.
Taken in the same sequence, the figures for AREQLYEKLEQA [MIC27 C-terminal 12 aa] were 0.697 ± 0.007 and 0.6716 ± 0.0039.
The corresponding values for ARMTGETPVAKH [YHM2 C-terminal 12 aa] are 0.688 ± 0.033 and 0.677 ± 0.016.
Turning to ATEITPLLNIAE [VLD1 C-terminal 12 aa], the protein stability index reads like this: under setting [1], 0.674 ± 0.018; (genetic background: wild type) 0.773 ± 0.033.
The corresponding values for “ATSLSPNKASAS [YJL026C-A C-terminal 12 aa]” are 0.685 ± 0.015 and 0.6601 ± 0.0011.
Taken in the same sequence, the figures for ATVSKIIKLDRK [MYO4 C-terminal 12 aa] were 0.711 ± 0.0089 and 0.691 ± 0.025.
Taken in the same sequence, the figures for AVHSFNTPAVQS [COX1 C-terminal 12 aa] were 0.6863 ± 0.0034 and 0.676 ± 0.019.
With AWAKKLKSMRRS [TAM41 C-terminal 12 aa], the protein stability index turned out to be 0.709 ± 0.013 under setting [1] and 0.634 ± 0.021 (genetic background: wild type).
As to AWIADLDHTVQP [CHS6 C-terminal 12 aa], the protein stability index reads like this: under setting [1], 0.718 ± 0.017; (genetic background: wild type) 0.708 ± 0.011.
The corresponding values for AYECAKHFLMKN [MRS4 C-terminal 12 aa] are 0.7061 ± 0.0038 and 0.5284 ± 0.0001.
AYETLTGSKWSH [ADE1 C-terminal 12 aa]: the protein stability index stood at 0.704 ± 0.01 under setting [1] and 0.704 ± 0.015 (genetic background: wild type).
Regarding CADCGTILNNFR [DGR2 C-terminal 12 aa], the protein stability index is, setting by setting: under setting [1], 0.731 ± 0.017; (genetic background: wild type) 0.748 ± 0.045.
Regarding CCCFLLELVCDN [YDR210W C-terminal 12 aa], the protein stability index by setting is: under setting [1], 0.512 ± 0.013; (genetic background: wild type) 0.523 ± 0.018.
Turning to CDVKSSIIVGIL [YLR358C C-terminal 12 aa], the protein stability index reads like this: under setting [1], 0.638 ± 0.02; (genetic background: wild type) 0.655 ± 0.059.
As to “CIEIARHFVLKE [YEL009C-A C-terminal 12 aa]”, the protein stability index runs as follows: under setting [1], 0.73 ± 0.014; (genetic background: wild type) 0.708 ± 0.027.
The corresponding values for CKQNSNCEYLYM [YOR365C C-terminal 12 aa] are 0.682 ± 0.012 and 0.699 ± 0.012.
For CLRTVLKSDEIK [SFA1 C-terminal 12 aa], the protein stability index came out at 0.647 ± 0.025 under setting [1] and 0.663 ± 0.021 (genetic background: wild type).
Turning to “CLSGIGLFPVSS [YHL030W-A C-terminal 12 aa]”, the protein stability index stood at 0.6846 ± 0.0057 under setting [1] and 0.69 ± 0.021 (genetic background: wild type).
Taken in the same sequence, the figures for CSTERPKRARCD [YOR342C C-terminal 12 aa] were 0.708 ± 0.0099 and 0.695 ± 0.029.
Taken in the same sequence, the figures for DALDIANRIGYI [RPL25 C-terminal 12 aa] were 0.668 ± 0.027 and 0.683 ± 0.012.
As to DDDDDGPYADDS [GSY2 C-terminal 12 aa], the protein stability index worked out at 0.707 ± 0.0079 under setting [1] and 0.706 ± 0.019 (genetic background: wild type).
The sequence DDDEFDEDEFED [PAH1 C-terminal 12 aa] returned a protein stability index under setting [1] of 0.695 ± 0.03 and a protein stability index (genetic background: wild type) of 0.7188 ± 0.0021.
Taken in the same sequence, the figures for DDKPKIPTMLNA [YME1 C-terminal 12 aa] were 0.7003 ± 0.0065 and 0.671 ± 0.046.
With DDPDENTALLGA [YDR338C C-terminal 12 aa], the protein stability index reads like this: under setting [1], 0.7076 ± 0.0037; (genetic background: wild type) 0.711 ± 0.034.
Taken in the same sequence, the figures for DDSSSTDTEERE [SSK2 C-terminal 12 aa] were 0.675 ± 0.028 and 0.683 ± 0.029.
Taken in the same sequence, the figures for DEDEFENQRQQF [YIL055C C-terminal 12 aa] were 0.71 ± 0.0099 and 0.709 ± 0.076.
The corresponding values for DEEKQLSLSDMI [YOR186W C-terminal 12 aa] are 0.692 ± 0.03 and 0.672 ± 0.019.
DEFCSQRSYTRF [MIN7 C-terminal 12 aa] had a protein stability index under setting [1] of 0.716 ± 0.042 and a protein stability index (genetic background: wild type) of 0.701 ± 0.032.
DEQGNELSPRNY [MID2 C-terminal 12 aa] gave a protein stability index under setting [1] of 0.69199 ± 0.00026 and a protein stability index (genetic background: wild type) of 0.723 ± 0.035.
As to DFFDYDLLFQND [PIP2 C-terminal 12 aa], the protein stability index by setting is: under setting [1], 0.767 ± 0.021; (genetic background: wild type) 0.788 ± 0.034.
The corresponding values for DFSKFKDSRLYD [YND1 C-terminal 12 aa] are 0.688 ± 0.034 and 0.671 ± 0.01.
Consider DGGLAGPVTVRD [FMP45 C-terminal 12 aa], for which the protein stability index reads like this: under setting [1], 0.6903 ± 0.005; (genetic background: wild type) 0.713 ± 0.048.
The corresponding values for DGSADLGGWETM [UBR2 C-terminal 12 aa] are 0.732 ± 0.026 and 0.733 ± 0.048.
The corresponding values for DIIKSIGDSYSI [NSE3 C-terminal 12 aa] are 0.69 ± 0.03 and 0.734 ± 0.076.
Taken in the same sequence, the figures for DIYEIRGTALDD [DSL1 C-terminal 12 aa] were 0.6986 ± 0.0054 and 0.699 ± 0.052.
Regarding “DKKVNNNIILFL [YAL037C-A C-terminal 12 aa]”, the protein stability index under setting [1] was found to be 0.692 ± 0.042 and the protein stability index (genetic background: wild type) is 0.704 ± 0.011.
Taken in the same sequence, the figures for DLEGVLWRSYYA [BLM10 C-terminal 12 aa] were 0.744 ± 0.008 and 0.711 ± 0.0089.
Taken in the same sequence, the figures for DLIESTFRSITQ [PAN3 C-terminal 12 aa] were 0.7194 ± 0.0067 and 0.7049 ± 0.0029.
With DLLDKDVLLISE [CDC7 C-terminal 12 aa], the protein stability index under setting [1] turned out to be 0.706 ± 0.0095 and the protein stability index (genetic background: wild type) is 0.6734 ± 0.0014.
In the case of DLSLVFGNHEST [HEM15 C-terminal 12 aa], the protein stability index amounted to 0.694 ± 0.038 under setting [1] and 0.727 ± 0.02 (genetic background: wild type).
The corresponding values for DNEGSRKMLKIE [CIN8 C-terminal 12 aa] are 0.6613 ± 0.0033 and 0.662 ± 0.042.
Take DNKPKLSDVEKD [GEA2 C-terminal 12 aa]: the protein stability index turned out to be 0.698 ± 0.019 under setting [1] and 0.707 ± 0.017 (genetic background: wild type).
Taken in the same sequence, the figures for DNQPWQLARCGR [HRT1 C-terminal 12 aa] were 0.698 ± 0.015 and 0.718 ± 0.014.
DPEPPKEDPHDH [TCP1 C-terminal 12 aa]: the protein stability index is, setting by setting: under setting [1], 0.706 ± 0.0085; (genetic background: wild type) 0.704 ± 0.051.
Regarding DQAAKTFVIKKD [MDM38 C-terminal 12 aa], the protein stability index was 0.703 ± 0.019 under setting [1] and 0.668 ± 0.028 (genetic background: wild type).
The corresponding values for DQFQKVEKSIVK [RRF1 C-terminal 12 aa] are 0.69 ± 0.02 and 0.675 ± 0.061.
Taken in the same sequence, the figures for DQLEDTSSHDEL [MPD2 C-terminal 12 aa] were 0.7476 ± 0.0003 and 0.7 ± 0.025.
As for DSDADIEELLEE [PGA2 C-terminal 12 aa], the protein stability index reads like this: under setting [1], 0.696 ± 0.015; (genetic background: wild type) 0.689 ± 0.046.
Taken in the same sequence, the figures for DSEDDEDESDDE [SUI2 C-terminal 12 aa] were 0.689 ± 0.036 and 0.717 ± 0.094.
DSFIPLQPKKKI [YML037C C-terminal 12 aa] came in with a protein stability index under setting [1] of 0.684 ± 0.05 and a protein stability index (genetic background: wild type) of 0.684 ± 0.015.
